In the supplement of paper PMC10567573:

B1: ANKRD9 (parent)
chain: LLEDMRASEAFHWDERGRAAAYSP

Variants of: B1
Assay: protein stability index of a GFP-peptide fusion (GPS, HEK-293T) (PSI 1-6); higher = more stable
Conditions: c terminus: a fixed tail appended
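Also: lentivirally expressed fusions sorted by FACS into six bins by GFP to DsRed ratio, PSI derived from sequencing read proportions per bin multiplied by bin number.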

Question: Which protein stability index does the source give for LLEVMRASEAFHWDERGRAAAYSP [D4V] here?
Answer: 2.19

Question: For LLESMRASEAFHWDERGRAAAYSP [D4S], which protein stability index is on record?
Answer: 2.23

Question: With LLEYMRASEAFHWDERGRAAAYSP [D4Y] as the variant, how does the protein stability index read?
Answer: 1.9

Question: With LLETMRASEAFHWDERGRAAAYSP [D4T] as the variant, how does the protein stability index read?
Answer: 2.62

Question: Which protein stability index does the source give for LLEWMRASEAFHWDERGRAAAYSP [D4W] here?
Answer: 1.52

Question: Which protein stability index does the source give for LLEDMRASEAFHWDECGRAAAYSP [R16C] here?
Answer: 1.56

Question: For LLEDMRASEAFHWDEAGRAAAYSP [R16A], which protein stability index is on record?
Answer: 2.24

Question: Which protein stability index does the source give for LLEDMRASEAFHWDEEGRAAAYSP [R16E] here?
Answer: 1.93

Question: For LLEDMRASEAFHWDEFGRAAAYSP [R16F], which protein stability index is on record?
Answer: 1.86

Question: With LLEDMRASEAFAWDERGRAAAYSP [H12A] as the variant, how does the protein stability index read?
Answer: 3.33

Question: With LLEDMRASEAFLWDERGRAAAYSP [H12L] as the variant, how does the protein stability index read?
Answer: 2.68

Question: For LLEDMRASEAFKWDERGRAAAYSP [H12K], which protein stability index is on record?
Answer: 2.5

Question: Which protein stability index does the source give for LLEDMRASEAFFWDERGRAAAYSP [H12F] here?
Answer: 2.29

Question: Which protein stability index does the source give for LLEDMRASEAFCWDERGRAAAYSP [H12C] here?
Answer: 3.35

Question: Which protein stability index does the source give for LLEDMRASEAFPWDERGRAAAYSP [H12P] here?
Answer: 1.95

Question: For LLEDMRASEAFMWDERGRAAAYSP [H12M], which protein stability index is on record?
Answer: 1.68

Question: Which protein stability index does the source give for LLEDMRASEAFTWDERGRAAAYSP [H12T] here?
Answer: 2.21

Question: With LLEDMRASEAFIWDERGRAAAYSP [H12I] as the variant, how does the protein stability index read?
Answer: 2.61

Question: For LLEDMRASEAFGWDERGRAAAYSP [H12G], which protein stability index is on record?
Answer: 2.49

Question: For LLEDMRASEAFDWDERGRAAAYSP [H12D], which protein stability index is on record?
Answer: 2.1

Question: For LLEDMRASEAFVWDERGRAAAYSP [H12V], which protein stability index is on record?
Answer: 1.34

Question: For LLEDMRASEAFEWDERGRAAAYSP [H12E], which protein stability index is on record?
Answer: 1.83

Question: For LLEDMRASEAFRWDERGRAAAYSP [H12R], which protein stability index is on record?
Answer: 2.2

Question: With LLEDMRASENFHWDERGRAAAYSP [A10N] as the variant, how does the protein stability index read?
Answer: 1.54

Question: Which protein stability index does the source give for LLEDMRASETFHWDERGRAAAYSP [A10T] here?
Answer: 2.44

Question: With LLEDMRASEHFHWDERGRAAAYSP [A10H] as the variant, how does the protein stability index read?
Answer: 2.7

Question: With LLEDMRASEEFHWDERGRAAAYSP [A10E] as the variant, how does the protein stability index read?
Answer: 1.81

Question: For LLEDMRASEFFHWDERGRAAAYSP [A10F], which protein stability index is on record?
Answer: 2.1

Question: Which protein stability index does the source give for LLEDMRASEVFHWDERGRAAAYSP [A10V] here?
Answer: 1.5

Question: With LLEDMRASEMFHWDERGRAAAYSP [A10M] as the variant, how does the protein stability index read?
Answer: 1.94

Question: Which protein stability index does the source give for LLEDMRASERFHWDERGRAAAYSP [A10R] here?
Answer: 1.86

Question: With LLEDMRASEKFHWDERGRAAAYSP [A10K] as the variant, how does the protein stability index read?
Answer: 1.97

Question: Which protein stability index does the source give for LLEDMRASEPFHWDERGRAAAYSP [A10P] here?
Answer: 3.58

Question: With LLEDMRASEGFHWDERGRAAAYSP [A10G] as the variant, how does the protein stability index read?
Answer: 2.46

Question: For LLEDMRASEWFHWDERGRAAAYSP [A10W], which protein stability index is on record?
Answer: 1.94

Question: With LLEDMRASEDFHWDERGRAAAYSP [A10D] as the variant, how does the protein stability index read?
Answer: 1.23

Question: With LLEDMRASECFHWDERGRAAAYSP [A10C] as the variant, how does the protein stability index read?
Answer: 1.39

Question: For LLEDMRASESFHWDERGRAAAYSP [A10S], which protein stability index is on record?
Answer: 1.85

Question: Which protein stability index does the source give for LLEDMRASELFHWDERGRAAAYSP [A10L] here?
Answer: 2.82

Question: Which protein stability index does the source give for LLEDMRASEAFHWWERGRAAAYSP [D14W] here?
Answer: 2.41

Question: With LLEDMRASEAFHWHERGRAAAYSP [D14H] as the variant, how does the protein stability index read?
Answer: 2.13

Question: Which protein stability index does the source give for LLEDMRASEAFHWYERGRAAAYSP [D14Y] here?
Answer: 1.98

Question: Which protein stability index does the source give for LLEDMRASEAFHWPERGRAAAYSP [D14P] here?
Answer: 1.6

Question: With LLEDMRASEAFHWVERGRAAAYSP [D14V] as the variant, how does the protein stability index read?
Answer: 1.35

Question: Which protein stability index does the source give for LLEDMRASEAFHWRERGRAAAYSP [D14R] here?
Answer: 2.29

Question: With LLEDMRASEAFHWNERGRAAAYSP [D14N] as the variant, how does the protein stability index read?
Answer: 2.11

Question: For LLEDMRASEAFHWMERGRAAAYSP [D14M], which protein stability index is on record?
Answer: 2.33

Question: Which protein stability index does the source give for LLEDMRASEAFHWIERGRAAAYSP [D14I] here?
Answer: 1.77

Question: For LLEDMRASEAFHWTERGRAAAYSP [D14T], which protein stability index is on record?
Answer: 2.57

Question: For LLEDMRASEAFHWFERGRAAAYSP [D14F], which protein stability index is on record?
Answer: 1.36

Question: With LLEDMRASEAFHWQERGRAAAYSP [D14Q] as the variant, how does the protein stability index read?
Answer: 1.58

Question: Which protein stability index does the source give for LLEDMRASEAFHWLERGRAAAYSP [D14L] here?
Answer: 2.09

Question: For LLEDMRASEAFHWKERGRAAAYSP [D14K], which protein stability index is on record?
Answer: 1.41

Question: With LLEDMMASEAFHWDERGRAAAYSP [R6M] as the variant, how does the protein stability index read?
Answer: 2.17

Question: With LLEDMYASEAFHWDERGRAAAYSP [R6Y] as the variant, how does the protein stability index read?
Answer: 2.43

Question: For LLEDMWASEAFHWDERGRAAAYSP [R6W], which protein stability index is on record?
Answer: 1.87

Question: With LLEDMLASEAFHWDERGRAAAYSP [R6L] as the variant, how does the protein stability index read?
Answer: 1.1

Question: Which protein stability index does the source give for LLEDMCASEAFHWDERGRAAAYSP [R6C] here?
Answer: 3.6

Question: With LLEDMTASEAFHWDERGRAAAYSP [R6T] as the variant, how does the protein stability index read?
Answer: 2.5

Question: With LLEDMVASEAFHWDERGRAAAYSP [R6V] as the variant, how does the protein stability index read?
Answer: 2.43

Question: For LLEDMFASEAFHWDERGRAAAYSP [R6F], which protein stability index is on record?
Answer: 2.79

Question: For LLEDMAASEAFHWDERGRAAAYSP [R6A], which protein stability index is on record?
Answer: 3.56

Question: Which protein stability index does the source give for LLEDMHASEAFHWDERGRAAAYSP [R6H] here?
Answer: 2.95

Question: For LLEDMEASEAFHWDERGRAAAYSP [R6E], which protein stability index is on record?
Answer: 3.96

Question: With LLEDMPASEAFHWDERGRAAAYSP [R6P] as the variant, how does the protein stability index read?
Answer: 3.27

Question: For LLEDMDASEAFHWDERGRAAAYSP [R6D], which protein stability index is on record?
Answer: 4.03

Question: For LLEDMKASEAFHWDERGRAAAYSP [R6K], which protein stability index is on record?
Answer: 2.85

Question: With LLEDMSASEAFHWDERGRAAAYSP [R6S] as the variant, how does the protein stability index read?
Answer: 2.9

Question: With LLEDMNASEAFHWDERGRAAAYSP [R6N] as the variant, how does the protein stability index read?
Answer: 2.97

Question: Which protein stability index does the source give for LLEDMIASEAFHWDERGRAAAYSP [R6I] here?
Answer: 2.32

Question: With LLEDMRASEAFHEDERGRAAAYSP [W13E] as the variant, how does the protein stability index read?
Answer: 2.06

Question: For LLEDMRASEAFHNDERGRAAAYSP [W13N], which protein stability index is on record?
Answer: 2.2

Question: Which protein stability index does the source give for LLEDMRASEAFHCDERGRAAAYSP [W13C] here?
Answer: 2.53

Question: With LLEDMRASEAFHVDERGRAAAYSP [W13V] as the variant, how does the protein stability index read?
Answer: 2.05

Question: Which protein stability index does the source give for LLEDMRASEAFHHDERGRAAAYSP [W13H] here?
Answer: 2.66

Question: With LLEDMRASEAFHGDERGRAAAYSP [W13G] as the variant, how does the protein stability index read?
Answer: 2.61

Question: With LLEDMRASEAFHPDERGRAAAYSP [W13P] as the variant, how does the protein stability index read?
Answer: 2.74

Question: With LLEDMRASEAFHADERGRAAAYSP [W13A] as the variant, how does the protein stability index read?
Answer: 2.16

Question: With LLEDMRASEAFHMDERGRAAAYSP [W13M] as the variant, how does the protein stability index read?
Answer: 1.84

Question: With LLEDMRASEAFHDDERGRAAAYSP [W13D] as the variant, how does the protein stability index read?
Answer: 2.24

Question: Which protein stability index does the source give for LLEDMRASEAFHLDERGRAAAYSP [W13L] here?
Answer: 2.41

Question: Which protein stability index does the source give for LLEDMRASEAFHKDERGRAAAYSP [W13K] here?
Answer: 2.93

Question: Which protein stability index does the source give for LLEDMRASEAFHFDERGRAAAYSP [W13F] here?
Answer: 2.05

Question: For LLEDMRASEAFHYDERGRAAAYSP [W13Y], which protein stability index is on record?
Answer: 1.39

Question: With LLEDMRASEAFHRDERGRAAAYSP [W13R] as the variant, how does the protein stability index read?
Answer: 2.94

Question: With LLEDMRASEAFHIDERGRAAAYSP [W13I] as the variant, how does the protein stability index read?
Answer: 1.87

Question: Which protein stability index does the source give for LLEDMRWSEAFHWDERGRAAAYSP [A7W] here?
Answer: 2.3

Question: For LLEDMRTSEAFHWDERGRAAAYSP [A7T], which protein stability index is on record?
Answer: 2.15

Question: With LLEDMRESEAFHWDERGRAAAYSP [A7E] as the variant, how does the protein stability index read?
Answer: 1.27

Question: Which protein stability index does the source give for LLEDMRDSEAFHWDERGRAAAYSP [A7D] here?
Answer: 2.51

Question: For LLEDMRKSEAFHWDERGRAAAYSP [A7K], which protein stability index is on record?
Answer: 1.52

Question: Which protein stability index does the source give for LLEDMRLSEAFHWDERGRAAAYSP [A7L] here?
Answer: 2.19

Question: For LLEDMRCSEAFHWDERGRAAAYSP [A7C], which protein stability index is on record?
Answer: 1.8

Question: Which protein stability index does the source give for LLEDMRVSEAFHWDERGRAAAYSP [A7V] here?
Answer: 2.35
